Experiments:
[1] = target: T1, HIV-1 Rev (HIV-1, UniProt P04618 P04618:1-116); test: filter; high-affinity ligand; modification interference; 200 mM KOAc, 50 mM Tris pH 7.7, 10 mM DTT, 37 C; conditions: tags: American Biotechnologies, Inc
Procedure: (§1) Chemical Modification of RNA. Chemical modification techniques for nucleic acids are described in general in Ehresmann et al. (1987) Nucleic Acids Research 15:9109-9128. Modification of RNA under native conditions was performed in 200 mM KOAc, 50 mM Tris-HCl pH 7.7, 1 mM EDTA at 37° C. Modification under denaturing conditions was done in 7 M urea, 50 mM Tris-HCl pH 7.7 at 90° C. Concentration of modifying agents and incubation times are as follows: ethylnitrosourea (ENU)-1/5 dilution v/v of ethanol saturated with ENU, native 1-3 hours, denaturing 5 minutes; dimethyl sulfate (DMS)-1/750-fold dilution v/v, native 8 minutes, denaturing 1 minute; kethoxal- 0.5 mg/ml, native 5 minutes, denaturing 2 minutes; carbodiimide (CMCT)-10 mg/ml, native 30 minutes, denaturing 3 minutes; diethyl pyrocarbonate (DEPC)-1/10 dilution v/v, native 10 minutes, denaturing 1 minute.
Modification interference of Rev binding. RNAs chemically modified under denaturing conditions were selected for Rev binding through filter partitioning. […]
The extent of modification interference was determined by densitometric scanning of autoradiographs using LKB (ENU) and Molecular Dynamics (DMS, kethoxal, CMCT, and DEPC) laser densitometers. […]

[2] = target: T2, HIV-1 reverse transcriptase (HIV-RT) (HIV-1, UniProt P03366;P03366 P03366:600-1159,P03366:600-1039); test: filter; selected by HIV-RT from mixed 2'-OMe/2'-OH population
[3] = target: T1, HIV-1 Rev; test: footprint; 200 mM KOAc, 50 mM Tris pH 7.7, 1 mM DTT, 5 mM MgCl2; 500 nM Rev; conditions: tags: American Biotechnologies, Inc
Procedure: as §1
Modification of RNA in the presence of Rev. “Footprinting” of the Rev ligand, modification of the RNA ligand in the presence of Rev protein, was performed in 200 mM KOAc, 50 mM Tris-Cl pH 7.7, 1 mM DTT, and 5 mM MgCl₂. Concentration of protein was 500 nanomolar, and approximately in 3-fold molar excess over RNA concentration. Modification with protein present was attempted with all modifying agents listed above except ethylnitrosourea (ENU).

[4] = target: T2, HIV-1 reverse transcriptase (HIV-RT); test: footprint; chemical protection and modification interference
Excerpt: Selection of modified RNAs by HIV-RT. Binding reactions were as above except that rather than to vary the amount of HIV-RT added to a reaction, the volume of reaction was increased in order to lower concentration. RNAs that were modified under denaturing conditions were selected at concentrations of 20, 4 and 0.8 nanomolar HIV-RT (in volumes of 1, 5 and 25 mls of binding buffer.) The amount of RNA added to each reaction was equivalent for each experiment (approximately 1-5 picomoles). RNA was eluted from filters as described in Tuerk et al. (1990) J. Mol. Biol. 213:749; Tuerk and Gold (1990) Science 249:505-510, and assayed for modified positions. In each experiment a control was included in which unselected RNA was spotted on a filter, eluted and assayed for modified positions in parallel with the selected RNAs. Determinations of variation in chemical modification for selected versus unselected RNAs were made by visual inspection of exposed films of electrophoresed assay products with the following exceptions. The extent of modification interference by ENU was determined by densitometric scanning of films using an LKB laser densitomer. An index of modification interference (M.I.) at each position was calculated as follows:
Assay of chemical modification. […]

T1 sequence (P04618 whole entry, one chain of several): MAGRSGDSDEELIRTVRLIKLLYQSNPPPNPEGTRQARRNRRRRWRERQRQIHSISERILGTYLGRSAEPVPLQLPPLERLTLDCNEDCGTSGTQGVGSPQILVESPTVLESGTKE

GGGUGCAUUGAGAAACACGUUUGUGGACUCUGUAUCU (ssRNA) [Rev ligand 6a]
binding result [1]: binds

B1: 2'-methoxy mixed ligand B oligonucleotide (mixed)
RNA: AAAAAUCCGAAGUGCAACGGGAAAAUGCACU
modifications: AAAAA 5' tail deoxy; UCCGA and ACGGGAAAA mixed 2'-OH/2'-OMe; AGUGCA and UGCACU 2'-OMe
binding result [2]: binds

B2: extended Rev ligand 6a (ssRNA)
RNA: GGGUGCAUUGAGAAACACGUUUGUGGACUCUGUAUCUAUGAAAGAAUUUUAUAUCUCUAUUGAAAC
binding result [3]: binds

B3: lengthened ligand B (ssRNA)
RNA: GGUCCGAAGUGCAACGGGAAAAUGCACUAUGAAAGAAUUUUAUAUCUCUAUUGAAAC
binding result [4]: binds

From patent US20020172962, “Methods of producing nucleic acid ligands” (GILEAD SCIENCES, INC., published 2002)
